Data from patent US20120093814A1, “Fusion Proteins Comprising Canine FC Portions” (BOEHRINGER INGELHEIM INTERNATIONAL GMBH, priority 2009, published 2012).
Positions of bridges follow the written chain, without caps; N, C: chain ends. No end group written: not given here.

Tests used:
[1] = biological target: canine NPRA (natriuretic peptide receptor A), full length, stably expressed on HEK293 cells (canine (dog)); assay: cell-based or functional assay
[2] = biological target: T1, canine NPRA (natriuretic peptide receptor A), full length, stably expressed on HEK293 cells (canine (dog), UniProt A0A8I3MHU3 32-1060); assay: cell-based or functional assay
T1 sequence: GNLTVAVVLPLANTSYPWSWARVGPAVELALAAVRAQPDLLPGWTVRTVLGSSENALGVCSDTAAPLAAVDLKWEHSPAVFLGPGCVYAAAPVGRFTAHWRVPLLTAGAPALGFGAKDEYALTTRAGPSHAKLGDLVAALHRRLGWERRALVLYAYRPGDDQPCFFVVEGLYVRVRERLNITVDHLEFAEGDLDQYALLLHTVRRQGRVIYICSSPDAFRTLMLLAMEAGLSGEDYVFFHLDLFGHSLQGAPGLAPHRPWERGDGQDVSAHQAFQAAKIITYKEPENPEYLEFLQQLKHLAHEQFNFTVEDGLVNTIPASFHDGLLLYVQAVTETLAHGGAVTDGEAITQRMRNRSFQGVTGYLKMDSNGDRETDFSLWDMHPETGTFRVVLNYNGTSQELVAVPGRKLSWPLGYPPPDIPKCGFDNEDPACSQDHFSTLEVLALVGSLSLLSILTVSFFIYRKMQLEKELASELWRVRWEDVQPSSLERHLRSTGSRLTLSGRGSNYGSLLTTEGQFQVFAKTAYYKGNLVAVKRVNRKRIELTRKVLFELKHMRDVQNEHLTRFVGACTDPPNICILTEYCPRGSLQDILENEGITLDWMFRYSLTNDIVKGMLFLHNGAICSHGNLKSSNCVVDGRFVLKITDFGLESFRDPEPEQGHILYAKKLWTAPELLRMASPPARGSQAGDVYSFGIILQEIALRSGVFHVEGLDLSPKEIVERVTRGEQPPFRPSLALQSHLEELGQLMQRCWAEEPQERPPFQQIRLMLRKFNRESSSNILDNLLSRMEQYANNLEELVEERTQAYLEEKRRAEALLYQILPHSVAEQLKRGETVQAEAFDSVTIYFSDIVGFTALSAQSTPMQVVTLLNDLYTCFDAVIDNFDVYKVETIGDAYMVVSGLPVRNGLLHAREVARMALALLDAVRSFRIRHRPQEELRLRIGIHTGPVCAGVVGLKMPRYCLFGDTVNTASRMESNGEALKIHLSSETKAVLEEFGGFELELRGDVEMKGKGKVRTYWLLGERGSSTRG

[3] = biological target: T1, canine NPRA (natriuretic peptide …); assay: cell-based or functional assay; remark: listed apart in the source
[4] = Pharmacokinetics of ANP-caFc in conscious dogs following a single dose; format: in vivo, dog
Description: (§1) Dogs were administered a single IV dose (1 mg/kg or 17 nmol/kg) or SC dose (2.5 mg/kg or 42 nmol/kg) of ANP-caFc to assess PKPD over a period of 4 to 7 days. These doses were selected because they were similar to the dose-range employed to evaluate Cardeva (recombinant human serum albumin-BNP fusion protein) in dogs. […] The sensitivity of the ELISA used to reliably detect ANP-caFc in dog plasma was limited by having a minimum detection level in dog plasma of […]. In order to avoid plasma matrix effects, a minimum dilution of 1:50 was required when assaying beagle plasma. The linear range of the assay, in PBS, is […] to approximately 100 nM. In 2% beagle plasma the linear range of the curve is 1 nM to about 80 or 90 nM. FIG. 4 only provides an estimate of the estimated plasma levels and Table 2 presents the pharmacokinetics of ANP-caFc.

[5] = system: plasma cGMP; assay: Plasma cGMP levels in conscious dogs after IV and SC administration (preliminary PKPD); format: in vivo, dog; settings: single SC dose 2.5 mg/kg
Description: as §1
Plasma cGMP following SC dosing appeared to be elevated above baseline ≧48 hours post-dose (FIG. 5).

[6] = system: conscious telemeterized beagles; assay: Hemodynamic assessment in telemeterized conscious dogs (Study #1 and Study #2); format: in vivo, dog; settings: for effect on HR (figure legend) / effect on mean arterial blood pressure (figure legend): Days 1-4 post-dose
Description: The criteria for dose selection was that the dose could not decrease mean arterial blood pressure more than 5-10 mmHg below baseline, and that it should increase plasma cGMP concentration approximately 1.5×-2× above baseline. […] In study #1, a total of 5 dogs were dosed subcutaneously with vehicle, or ANP-caFc at 0.5, 1 and 2.5 mg/kg based on a modified Latin square design over a 4-week period. This dose-range was chosen because it was expected to overlap the targeted plasma cGMP elevation based on the single dose dog PK study. The dosing interval was 7 days. One animal was excluded from the final data analysis due to a failure of telemetry device during the study. ANP-caFc produced a dose-dependent increase in peak plasma levels of cGMP (3.7-, 3.5- and 6.6-fold—of vehicle day value FIG. 6), a dose-dependent peak reduction in mean arterial blood pressure (MAP; −13±5, −19±4, and −20±5 mmHg vs. vehicle—FIGS. 7A and 7B), and peak heart rate was increased (+30 ±10, +29 ±9, and +25 ±9 beats per minute—FIGS. 8A and 8B).
Since the MAP decreased more than 10 mmHg during the peak effect for all three doses, Study #2 was performed with lower doses (0.05 and 0.25 mg/kg) in the same 4 dogs using a similar study design. […] The 0.05 mg/kg dose of ANP-caFc had no effect of MAP (1.9±1.4 mmHg), HR (1.8±0.6 beats per minute), or plasma cGMP. (Urine samples were also collected for cGMP excretion measurements, however, samples were contaminated by drinking water and could not be used.)

[7] = single IV dose 1 mg/kg (17 nmol/kg)
[8] = single SC dose 2.5 mg/kg (42 nmol/kg)

B1: ANP28-20aa-CalgGB-Fc (recombinant canine ANP28 - (GGS)6GG linker - canine IgG-B Fc fusion protein) (Fc fusion)
chain: SLRRSSCFGGRMDRIGAQSGLGCNSFRYGGSGGSGGSGGSGGSGGSGGCPKCPAPEMLGGPSVFIFPPKPKDTLLIARTPEVTCVVVDLDPEDPEVQISWFVDGKQMQTAKTQPREEQFNGTYRVVSVLPIGHQDWLKGKQFTCKVNNKALPSPIERTISKARGQAHQPSVYVLPPSREELSKNTVSLTCLIKDFFPPDIDVEWQSNGQQEPESKYRTTPPQLDEDGSYFLYSKLSVDKSRWQRGDTFICAVMHEALHNHYTQESLSHSPGK
modifications: C-terminal Lysine residue missing in all lots produced (mass spectrometry); Fc glycosylated (G0, G1, G2)
cGMP EC50 (nM), Dog NPRA; lot 8760-110.3 [1]: 3 nM
cGMP EC50 (nM), Dog NPRA; lot 8760-137 [1]: 2.5 nM
cGMP EC50 (nM), Dog NPRA; lot 8760-174 [1]: 5.4 nM
cGMP EC50 (nM), Dog NPRA; lot 9081-51 [1]: 8.3 nM
cGMP EC50 (nM), Dog NPRA; lot 9081-53 [1]: 9.4 nM

SLRRSSCFGGRMDRIGAQSGLGCNSFRY (disulfide 7-23 (inferred)) [canine ANP28]
EC50 in the canine NPRA cGMP assay [2]: ~1 nM
cGMP EC50 (nM), cGMP induction on canine NPRA cells [3]: 0.2 nM

B2: ANP-caFc: canine ANP-Fc fusion protein dosed to dogs; Fc isotype not stated, nmol/kg doses fit the IgG-B fusion (protein)
chain: B1 chain
AUC [4, 7]: 2.0 ± 0.46 µM·h
MRT [4, 7]: 12.2 ± 1.9 h
T½ [4, 7]: 8.3 ± 2.0 h
Vss [4, 7]: 0.107 ± 0.013 L/kg
AUC [4, 8]: 6.1 ± 0.3 µM·h
MRT [4, 8]: 41.6 ± 1.0 h
T½ [4, 8]: 15.4 ± 1.8 h
time plasma cGMP elevated above baseline post-dose [5]: ≥ 48 h
increase in peak plasma levels of cGMP, of vehicle day value ([6]; Study #1, SC 0.5 mg/kg): 3.7 fold
peak heart rate increase ([6]; Study #1, SC 0.5 mg/kg): +30 ±10 beats per minute
peak reduction in mean arterial blood pressure (MAP) vs. vehicle ([6]; Study #1, SC 0.5 mg/kg): −13±5 mmHg
increase in peak plasma levels of cGMP, of vehicle day value ([6]; Study #1, SC 1 mg/kg): 3.5 fold
peak heart rate increase ([6]; Study #1, SC 1 mg/kg): +29 ±9 beats per minute
peak reduction in mean arterial blood pressure (MAP) vs. vehicle ([6]; Study #1, SC 1 mg/kg): −19±4 mmHg
increase in peak plasma levels of cGMP, of vehicle day value ([6]; Study #1, SC 2.5 mg/kg): 6.6 fold
peak heart rate increase ([6]; Study #1, SC 2.5 mg/kg): +25 ±9 beats per minute
peak reduction in mean arterial blood pressure (MAP) vs. vehicle ([6]; Study #1, SC 2.5 mg/kg): −20±5 mmHg
effect on HR (figure legend) ([6]; Study #1, subcutaneous): dose-dependently increased
effect on mean arterial blood pressure (figure legend) ([6]; Study #1, subcutaneous): dose-dependently decreased
change in HR ([6]; Study #2, SC 0.05 mg/kg): 1.8±0.6 beats per minute
change in MAP ([6]; Study #2, SC 0.05 mg/kg): 1.9±1.4 mmHg
effect on plasma cGMP ([6]; Study #2, SC 0.05 mg/kg): no effect
change in MAP vs. vehicle ([6]; Study #2, SC 0.25 mg/kg): −6.6±1.6 mmHg
effect on plasma cGMP ([6]; Study #2, SC 0.25 mg/kg): moderate increase
increase in heart rate ([6]; Study #2, SC 0.25 mg/kg): 20±9 beats per minute
effect on HR (figure legend) ([6]; Study #2, subcutaneous): dose-dependently increased
effect on mean arterial blood pressure (figure legend) ([6]; Study #2, subcutaneous): dose-dependently decreased
